# In the supplement of paper PMC10126150:
# ± gives the standard deviation of the averaged measurements.
# Test system: ATP
# Assay: switch fluorescence ratio, 500 uM ATP over buffer (Cy3 cluster intensity, sum of 5 cycles each) (fold (ratio)); higher = stronger signal-on switching upon ATP binding; sequences stand for … in TCGTCGGCAGCGTCAGATGTGTATAAGAGACAGTTTTTTTTTTTTTTTTTTTTTTTTT…TC
# Settings: aptamer strand: ATP DNA aptamer (quencher-CACCTGGGGGAGTATTGCGGAGGAAGG + anchor), 100 nM annealed; ATP concentration: 500 uM
# How it was run: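 Clusters with intensities outside 100-1000 RFU were excluded. The remaining Cy3-labelled switching-strand clusters on a modified Illumina MiSeq flow-cell had been annealed to 100 nM quencher-labelled ATP aptamer and imaged in selection buffer, then after 15 min with 500 uM ATP at 22 °C, for five cycles separated by NaOH stripping and re-annealing. The fluorescence ratio, averaged per switch-domain sequence, is each cluster's summed target-cycle Cy3 intensity over its summed buffer-cycle Cy3 intensity.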
# 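Also: ATP exposure 15 min at 22 °C before imaging.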
row,Sequence,switch fluorescence ratio
1,ATGTGTATGG,0.998 ± 0.018
2,GAAGAGAGGT,0.9901 ± 0.0037
3,TATGAATTGG,1 ± 0.018
4,TTGGTGGCTT,0.968 ± 0.03
5,GACATAAGCA,1.03 ± 0.017
6,ACGCGACATT,1.12 ± 0.039
7,CGGCTTTGCC,0.999 ± 0.016
8,ATGTAGGCAG,0.961 ± 0.029
9,GCAGTTTTGG,0.992 ± 0.015
10,GTTATCAGAT,1.02 ± 0.021
11,TGGGCAAGTT,1.04 ± 0.044
12,AGGGTTTTTT,1.02 ± 0.039
13,TTAGGTTTGG,1.05 ± 0.15
14,GATATTAAAG,1.02 ± 0.014
15,TCGCCTGGCG,0.972 ± 0.034
16,TGAAGTCCTT,1.005 ± 0.0037
17,TTTCAACGGT,1.009 ± 0.0075
18,CGTGTTGTAG,1.02 ± 0.017
19,GGTAGTTGTG,0.982 ± 0.013
20,AAGGGGGCCT,1 ± 0.024
21,CCATATAGTT,0.986 ± 0.03
22,TTATCATCTT,1.01 ± 0.032
23,ATGGAATTTG,0.98 ± 0.0098

row,Sequence,switch fluorescence ratio
1,CGATGGAGAG,1.0297 ± 0.00016
2,GTTGTTATCG,0.993 ± 0.028
3,ATGTGTAACA,0.97 ± 0.037
4,ATTTTTGGCA,0.995 ± 0.033
5,ATGTTTGGAG,0.982 ± 0.018
6,TGTTTGGGAA,1 ± 0.038
7,GCGGGGGGGC,1.01 ± 0.017
8,TAGAAGGGGC,0.989 ± 0.067
9,TGTACAAAAT,0.986 ± 0.047
10,GAAAAAGTCG,0.997 ± 0.042
11,TTGTTACTCG,0.976 ± 0.048
12,TTCAGGGCTT,0.986 ± 0.036
13,TTCAACTGGT,0.996 ± 0.022
14,TTTAATTTTG,1 ± 0.036
15,TTCGGCGGGT,1.03 ± 0.025
16,GCCATGGCTT,1.01 ± 0.0039
17,AATATATTGG,1.028 ± 0.0042
18,GAGGTTATAC,1.38 ± 0.042
19,GCTGAAAGGA,0.999 ± 0.061
20,GGTGGATTGG,1.07 ± 0.1
21,GTTTCGGGTT,0.986 ± 0.019
22,AGATCCGGGT,0.992 ± 0.025
23,CGCATCGCGT,1.02 ± 0.015

row,Sequence,switch fluorescence ratio
1,TCGGACGTAC,1.98 ± 0.16
2,TGAGCTGGCT,0.989 ± 0.021
3,GCACGGTACG,1 ± 0.031
4,CGCCGGAGGA,0.9697 ± 0.0067
5,AGGTAGGATT,1.01 ± 0.05
6,TAGTCGCGTC,1.004 ± 0.0066
7,TTTCTCCGGT,1.53 ± 0.39
8,AGCTGGCTAA,0.967 ± 0.014
9,CAATAAGGGG,1.04 ± 0.1
10,TTATTGAATT,0.998 ± 0.045
11,TATGGATCTT,0.983 ± 0.027
12,TGTATTGAAC,1.03 ± 0.0024
13,GGAGTCATGG,1.045 ± 0.0073
14,AGCGGGGATA,1.05 ± 0.024
15,CTCATATAGA,0.991 ± 0.045
16,ACGAGGGTCA,1.01 ± 0.06
17,TGTTGGACGT,1.036 ± 0.0024
18,GGCGTTGTCC,1.02 ± 0.044
19,GAGTAATGTT,1.02 ± 0.016
20,GGGTGGCACA,1 ± 0.0046
21,GGGGACCCTG,0.974 ± 0.029
22,GCAGGTTTGG,0.991 ± 0.033
23,TTGTTGTCTT,1.02 ± 0.043

row,Sequence,switch fluorescence ratio
1,TACGTTGAAA,1.17 ± 0.19
2,TCGTCATGTT,0.999 ± 0.015
3,CAAAGGGCAA,1.11 ± 0.038
4,TTTCTAGACA,1.02 ± 0.021
5,GCATCGTAGA,1.07 ± 0.015
6,GAGGCAGGGG,1.04 ± 0.072
7,ATAATTATGT,1 ± 0.018
8,GCTGGGTCTT,1.03 ± 0.023
9,GGGGGGGGTA,1 ± 0.044
10,TTGACTTTGG,0.959 ± 0.02
11,TGTATTTGGC,0.914 ± 0.044
12,TCTTGATGGA,0.9597 ± 0.0014
13,GGTCCAAGAT,0.9998 ± 0.0066
14,AAGCGGAGCC,0.966 ± 0.023
15,GGGTTATTGA,0.995 ± 0.01
16,GTAGGGAACC,0.976 ± 0.025
17,TAGGGGCGAT,1.01 ± 0.032
18,TTAGGATGTT,1.0069 ± 0.00069
19,CAGGTTTAAG,0.975 ± 0.055
20,TTTGAAGTCA,1 ± 0.022
21,GATTAAGGGT,1.04 ± 0.03
22,GGCCCGCGTT,1.11 ± 0.065
23,TAACAATATT,0.99495 ± 0.00094

row,Sequence,switch fluorescence ratio
1,GGGAAGTCGT,0.964 ± 0.039
2,TTAATATTAC,1.01 ± 0.014
3,ATGGGAACCT,1.12 ± 0.18
4,GGTGGTGTCG,1 ± 0.017
5,AAGTATGGGT,0.998 ± 0.028
6,TCGTAGATGT,1 ± 0.026
7,TCGTTTACGC,1.02 ± 0.08
8,GGGGTTAGCG,0.991 ± 0.021
9,AACATATCTT,0.996 ± 0.014
10,CGAAGAACTA,1.023 ± 0.0028
11,TTTCTGACGT,1.09 ± 0.057
12,AGTTGAGATG,0.971 ± 0.033
13,GATTGCCGCG,1 ± 0.047
14,AAGTACGTAG,1.011 ± 0.0065
15,GAGATGGTGC,0.99 ± 0.053
16,GACGTTTTCC,0.995 ± 0.097
17,TTGATATCAT,0.97 ± 0.049
18,TTTATAAGTA,1.02 ± 0.026
19,TTGGGGTAAT,1.01 ± 0.022
20,AGATGAGAGA,1 ± 0.016
21,CTTAACATGC,1.06 ± 0.049
22,TGACAATGTT,0.994 ± 0.052
23,GTTTTAAATG,0.975 ± 0.016

row,Sequence,switch fluorescence ratio
1,CAGAAATATT,1.01 ± 0.075
2,AGAAGGGTT,1.016 ± 0.0044
3,TGCTGCAGTT,0.982 ± 0.055
4,GAAATTAATA,0.993 ± 0.027
5,TGTCCGTTTG,1.01 ± 0.023
6,TACGCCGGTA,0.961 ± 0.032
7,CGGGTGGAGC,0.952 ± 0.011
8,AGAGCAGGGA,0.97 ± 0.064
9,TTGGGTTCTT,0.9937 ± 0.0066
10,TTTTAAGTGT,1 ± 0.045
11,ATGAGTTGTG,1 ± 0.017
12,ATAATGTAGC,1.04 ± 0.036
13,TCGGAAAGGG,0.9961 ± 0.0049
14,TTTAATTTT,1.04 ± 0.078
15,GGCTTGGAAT,0.989 ± 0.011
16,CTACAATGGA,1 ± 0.029
17,GTGGGCGGCC,0.99 ± 0.028
18,TCGAGGGCGG,0.98 ± 0.032
19,GATACGGTTA,1.03 ± 0.011
20,AATCGGTTGT,0.9815 ± 0.005
21,AGATAGGGGG,1 ± 0.034
22,TTGGGGAACA,1.014 ± 0.008
23,GTAGAAAAAA,1.002 ± 0.01

row,Sequence,switch fluorescence ratio
1,GAGGTGTTGA,0.9979 ± 0.003
2,TGAAGGCCGG,0.995 ± 0.033
3,TTAGGCGTTC,0.9892 ± 0.0096
4,GGTGTTATGT,1.01 ± 0.016
5,CGTTTGGCTT,1.01 ± 0.008
6,CCAGCTAGTT,1.05 ± 0.086
7,TTCCCACTAT,1.023 ± 0.0078
8,CTCGATTTAT,0.9951 ± 0.0086
9,GTGTGATGTT,0.99 ± 0.042
10,TCATTGATTT,0.978 ± 0.022
11,ACAAGGGTTA,0.999 ± 0.018
12,TTTGTTAGA,0.988 ± 0.012
13,GGGGGTAAAG,1.01 ± 0.022
14,TTTCGTTCTC,1.008 ± 0.0045
15,CTGAGGGAGA,1.04 ± 0.03
16,AGGGTAAACT,1.27 ± 0.37
17,GATTGAAAGG,0.957 ± 0.0097
18,GATTTGTTAG,0.977 ± 0.022
19,TTGGCATCCT,1.0176 ± 0.00051
